Among the data in article PMC8571082 are stoichiometry N values, retold here.

Experiment [1] has as its target T1, factor inhibiting HIF-1 (FIH-1), full-length (human), Q9NWT6. The experiment in a line: SEC-MALS; FIH-1 alone at 70 μM, 50 μl on Superdex 200 10/300 GL; 35 mM Na-phosphate pH 7.5, 300 mM NaCl, 500 μM αKG. The settings on record: remark: other sources report otherwise.
Experiment [2] concerns the target T1, factor inhibiting HIF-1 (FIH-1), …. Description: SEC; FIH-1 alone, wild type at ~7 μM; profiles of FIH-1 WT and L340R. The settings on record: remark: other sources report otherwise. In general terms: In gel filtration, larger molecules generally elute earlier.

B1: factor inhibiting HIF-1 (FIH-1), full-length, Q9NWT6 1-349 (enzyme)
chain: MAATAAEAVASGSGEPREEAGALGPAWDESQLRSYSFPTRPIPRLSQSDPRAEELIENEEPVVLTDTNLVYPALKWDLEYLQENIGNGDFSVYSASTHKFLYYDEKKMANFQNFKPRSNREEMKFHEFVEKLQDIQQRGGEERLYLQQTLNDTVGRKIVMDFLGFNWNWINKQQGKRGWGQLTSNLLLIGMEGNVTPAHYDEQQNFFAQIKGYKRCILFPPDQFECLYPYPVHHPCDRQSQVDFDNPDYERFPNFQNVVGYETVVGPGDVLYIPMYWWHHIESLLNGGITITVNFWYKGAPTPKRIEYPLKAHQKVAIMRNIEKMLGEALGNPQEVGPLLNTMIKGRYN
Usually stoichiometry N stands for a count of units in the complex or per binding partner. For B1, the stoichiometry N in experiment [1] and in experiment [2] was 2 in each case.
